# Columns and labels:
# Experiment in all cases: IEDB peptide-MHC binding, purified MHC/competitive/radioactivity; ≥ and ≤ were set here for values at or beyond the usual limits of such assays
# Conditions in all cases: source organism: Bordetella pertussis
# HLA-B*53:01 = molecular target: HLA-B*53:01
# HLA-B*57:01 = molecular target: HLA-B*57:01
# HLA-B*44:03 = molecular target: HLA-B*44:03
# HLA-A*02:01 = molecular target: HLA-A*02:01
# HLA-B*07:02 = molecular target: HLA-B*07:02
sequence,measurement,setting,value
LVYYESIAY,IC50,HLA-B*53:01,12 µM
AAPAAHADW,IC50,HLA-B*57:01,19.8 µM
AAMQGAVVH,IC50,HLA-B*44:03,≥ 78.2 µM
GLTDGVSRI,IC50,HLA-A*02:01,69.4 µM
IENTAKLSG,IC50,HLA-B*44:03,44.4 µM
IAHRTELRG,IC50,HLA-B*57:01,66.2 µM
SEAMAAWSE,IC50,HLA-B*44:03,7.6 µM
RVTVSGGSL,IC50,HLA-B*07:02,14.5 µM
HSLYASYEY,IC50,HLA-B*57:01,0.116 µM
same,IC50,HLA-B*53:01,42.5 µM
LNDSKITMG,IC50,HLA-B*53:01,≥ 78.2 µM
WLTWLAILA,IC50,HLA-A*02:01,40.1 µM
SPQPIRATV,IC50,HLA-B*07:02,0.149 µM
